The results in this text go back to the Immune Epitope Database (IEDB).

Common to all, as to assay: IEDB peptide-MHC binding, purified MHC/competitive/radioactivity; filed as Kd, often an IC50 or EC50 that approximates it; ≥ and ≤ were set here for values at or beyond the usual limits of such assays
Test [1] concerns the target HLA-A*11:01.
For test [2], the target named is HLA-A*31:01.
In test [3] the target is HLA-A*33:01.
The target of test [4] is HLA-A*68:01.
The target of test [5] is HLA-A*03:01.
[6] abbreviates: source organism: Vaccinia virus WR.
[7] abbreviates: source organism: SARS coronavirus Tor2.
Setting [8] is: source organism: Mammarenavirus juninense.

The term Kd denotes the equilibrium constant for the complex coming apart. Consider TIEILRNYLR, for which the Kd in test [1] (setting [6]) was found to be 48.5 nM; in test [2] (setting [6]), 21.1 nM; in test [3] (setting [6]), 27.7 nM; in test [4] (setting [6]), 1.62 nM; in test [5] (setting [6]) it was 2350 nM.
On the same counts, the results for TIKYSNDNR are 228 nM, 19.6 nM, 116 nM, 3 nM and 15500 nM.
For TILEYLYIMR the same measures were 2060 nM, 987 nM, 2300 nM, 167 nM and 8990 nM.
Consider TIQRFSSLR, for which the Kd in test [1] (setting [6]) was found to be 8.93 nM; in test [2] (setting [6]), 0.55 nM; in test [3] (setting [6]), 5.54 nM; in test [4] (setting [6]), 4.86 nM; in test [5] (setting [6]) it was 5210 nM.
For TISSESLVY the same measures were 10.7 nM, 10200 nM, 5450 nM, 619 nM and 21 nM.
On the same counts, the results for TLNGIMMNER are 1330 nM, 108 nM, 1460 nM, 743 nM and 226 nM.
For TQSVLCVKK the same measures were 6.64 nM, 1010 nM, at least 67900 nM, 228 nM and 1040 nM.
For TSRTLSYYK, the Kd in test [1] (setting [7]) is 160 nM; in test [2] (setting [7]), 179 nM; in test [3] (setting [7]), 2400 nM; in test [4] (setting [7]), 840 nM; in test [5] (setting [7]) it was 450 nM.
On the same counts, the results for TVKPGNFNK are 33 nM, 41.6 nM, 1000 nM, 122 nM and 81.5 nM.
Turning to VCFHEFLSSK, the Kd in test [1] (setting [8]) is 4500 nM; in test [2] (setting [8]) it was 1530 nM; in test [3] (setting [8]), at least 70000 nM; in test [4] (setting [8]) it was 14400 nM; in test [5] (setting [8]), 3470 nM.
For VFCNDHKGNR, the Kd in test [1] (setting [6]) is at least 69800 nM; in test [2] (setting [6]) it was 428 nM; in test [3] (setting [6]), 1880 nM; in test [4] (setting [6]), 4090 nM; in test [5] (setting [6]), at least 53200 nM.
As to VLPHLCLDY, the Kd turned out to be 421 nM in test [1] (setting [6]); 7820 nM in test [2] (setting [6]); 1990 nM in test [3] (setting [6]); 15000 nM in test [4] (setting [6]); 102 nM in test [5] (setting [6]).
For VSAKQLRTR the same measures were 2730 nM, 286 nM, 13400 nM, 1050 nM and 12700 nM.
On the same counts, the results for VTGFMEEEIK are 7.06 nM, 10700 nM, at least 33900 nM, 1220 nM and 13300 nM.
For VVNARLRAK, the Kd in test [1] (setting [7]) was 130 nM; in test [2] (setting [7]), 199 nM; in test [3] (setting [7]) it was at least 24900 nM; in test [4] (setting [7]) it was 8180 nM; in test [5] (setting [7]), 13.8 nM.
On to WLHECTDESR, for which the Kd in test [1] (setting [6]) is at least 69800 nM; in test [2] (setting [6]), 6230 nM; in test [3] (setting [6]), 254 nM; in test [4] (setting [6]), 273 nM; in test [5] (setting [6]), at least 70100 nM.
For WSRIGTAATK, the Kd in test [1] (setting [6]) is 1070 nM; in test [2] (setting [6]) it was at least 28900 nM; in test [3] (setting [6]) it was at least 70000 nM; in test [4] (setting [6]), 786 nM; in test [5] (setting [6]), 101 nM.
On the same counts, the results for YISRDELWAR are 792 nM, 1.75 nM, 0.808 nM, 32.4 nM and at least 25600 nM.
On the same counts, the results for YIYKSGKLVK are 36 nM, 7800 nM, 7860 nM, 539 nM and 7.74 nM.
